According to publication PMC6177252, “Transcription factors Rv0081 and Rv3334 connect the early and the enduring hypoxic response of Mycobacterium tuberculosis”:

Legend:
Rv0081 [1] = molecular target: T1, Rv0081 (Mycobacterium tuberculosis H37Rv, UniProt P9WMI7 1-114); assay: EMSA; 576 ng Rv0081; conditions: protein: recombinant; tags: His-tag (pET28b); chain copies: 2; blunt
T1 sequence: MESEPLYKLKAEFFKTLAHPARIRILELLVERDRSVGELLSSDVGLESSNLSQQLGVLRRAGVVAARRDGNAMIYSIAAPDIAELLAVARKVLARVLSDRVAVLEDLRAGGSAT

Rv0081 [2] = molecular target: T1, Rv0081; assay: EMSA; 288-576 ng Rv0081; conditions: protein: recombinant; tags: His-tag (pET28b); chain copies: 2; blunt
Rv0081 [3] = molecular target: T1, Rv0081; assay: EMSA; conditions: protein: recombinant; tags: His-tag (pET28b); chain copies: 2; label: FAM; blunt

B1: Fragment 4 (-203 to -154) (dsDNA)
DNA 1: GGATGGTCATAGTGGCGTCGGGCGCCAGGCCTGCGCGGGCACACGCGGTGCGG
DNA 2: CCGCACCGCGTGTGCCCGCGCAGGCCTGGCGCCCGACGCCACTATGACCATCC
Rv0081 [1]
  binding result: no binding

B2: Fragment 2 (-103 to -54) (dsDNA)
DNA 1: GTATGGGCTCACCGAGATCAGGCTCGTCACGATCGCCCGCACTGCTGGCGGCT
DNA 2: AGCCGCCAGCAGTGCGGGCGATCGTGACGAGCCTGATCTCGGTGAGCCCATAC
Rv0081 [1]
  binding result: no binding

B3: Fragment 5 (-40 to -10) (dsDNA)
DNA 1: GTTAACCTTCTAGTGCACTAGAAGGTCAAG
DNA 2: CTTGACCTTCTAGTGCACTAGAAGGTTAAC
Rv0081 [2]
  binding result: no binding

B4: Fragment a (-54 to -25) (dsDNA)
DNA 1: CACATGTACCCAGTGTTAACCTTCTAGTGC
DNA 2: GCACTAGAAGGTTAACACTGGGTACATGTG
Rv0081 [1]
  binding result: no binding

B5: Fragment c (-54 to -9) (dsDNA)
DNA 1: CACATGTACCCAGTGTTAACCTTCTAGTGCACTAGAAGGTCAAGGG
DNA 2: CCCTTGACCTTCTAGTGCACTAGAAGGTTAACACTGGGTACATGTG
Rv0081 [1]
  binding result: no binding

B6: Fragment 1 (-53 to 0) (dsDNA)
DNA 1: CACATGTACCCAGTGTTAACCTTCTAGTGCACTAGAAGGTCAAGGGGAGTCGC
DNA 2: GCGACTCCCCTTGACCTTCTAGTGCACTAGAAGGTTAACACTGGGTACATGTG
Rv0081 [1]
  binding result: binds

B7: FAM-Fragment 1 (dsDNA)
DNA 1: B6 DNA 1
DNA 2: B6 DNA 2
Rv0081 [3]
  binding result: binds

B8: Fragment b (-54 to -17) (dsDNA)
DNA 1: CACATGTACCCAGTGTTAACCTTCTAGTGCACTAGAAG
DNA 2: CTTCTAGTGCACTAGAAGGTTAACACTGGGTACATGTG
Rv0081 [1]
  binding result: no binding

B9: FAM-Fragment 3 (dsDNA)
DNA 1: TGTCGATGGTTGTTCTCATCTGGTAACTCCTTTCCGCAGGCCGCAATTCAGCG
DNA 2: CGCTGAATTGCGGCCTGCGGAAAGGAGTTACCAGATGAGAACAACCATCGACA
Rv0081 [3]
  binding result: binds

B10: Fragment 3 (-153 to -104) (dsDNA)
DNA 1: B9 DNA 1
DNA 2: B9 DNA 2
Rv0081 [1]
  binding result: binds

B11: Fragment 6 (-73 to -40) (dsDNA)
DNA 1: CGCCCGCACTGCTGGCGGCTCACATGTACCCAGT
DNA 2: ACTGGGTACATGTGAGCCGCCAGCAGTGCGGGCG
Rv0081 [2]
  binding result: no binding
